In IntAct's records for PubMed 21346153:

B1: Peroxiredoxin-6 (Rattus norvegicus (Rat)), O35244 (parent)
chain: MPGGLLLGDEAPNFEANTTIGHIRFHDFLGDSWGILFSHPRDFTPVCTTELGRAAKLAPEFAKRNVKLIALSIDSVEDHFAWSKDINAYNGAAPTEKLPFPIIDDKDRDLAILLGMLDPAEKDEKGMPVTARVVFIFGPDKKLKLSILYPATTGRNFDEILRVVDSLQLTASNPVATPVDWKKGESVMVLPTLPEEEAKQLFPKGVFTKELPSGKKYLRYTPQP

Variants of: B1
Settings: with 1433e_human YWHAE
For S32A, the “effect of a mutation on the interaction” value was “decreasing interaction strength”.

Variants of: B1
Settings: with 1433e_mouse Ywhae
In the case of S32A, the “effect of a mutation on the interaction” value is reported as “decreasing interaction strength”.
